From US8398971B2, “Methods, compounds, and compositions for treatment and prophylaxis in the respiratory tract” (NexBio, Inc., priority 2009, dated 2013)
Read-outs that look alike come from different tables or passages of the source.

How the values were obtained:
[1] = tested on: muscarinic receptor mediated airway resistance; test: airway resistance (Penh) in naive mice, methacholine challenged; assay type: in vivo, BALB/c mice; conditions: for dosage level sufficient for reduced airway responsiveness: intranasal once daily for three days
[2] = tested on: muscarinic receptor mediated airway resistance; assay type: in vivo, BALB/c mice; conditions: Example 5, 5, 10 and 20 mg/ml carbachol

B1: DAS181: fusion protein comprising a catalytic domain of a sialidase, and an anchoring domain (SEQ ID NO:21) (protein)
chain: MGDHPQATPAPAPDASTELPASMSQAQHLAANTATDNYRIPAITTAPNGDLLISYDERPKDNGNGGSDAPNPNHIVQRRSTDGGKTWSAPTYIHQGTETGKKVGYSDPSYVVDHQTGTIFNFHVKSYDQGWGGSRGGTDPENRGIIQAEVSTSTDNGWTWTHRTITADITKDKPWTARFAASGQGIQIQHGPHAGRLVQQYTIRTAGGAVQAVSVYSDDHGKTWQAGTPIGTGMDENKVVELSDGSLMLNSRASDGSGFRKVAHSTDGGQTWSEPVSDKNLPDSVDNAQIIRAFPNAAPDDPRAKVLLLSHSPNPRPWSRDRGTISMSCDDGASWTTSKVFHEPFVGYTTIAVQSDGSIGLLSEDAHNGADYGGIWYRNFTMNWLGEQCGQKPAKRKKKGGKNGKNRRNRKKKNP
- difference in airway resistance between dose groups ([1]; Example 3, 0.06, 0.1, 0.6 mg/kg): No difference was observed between the different dose groups
- airway resistance vs PBS ([1]; Example 3, 0.06, 0.1 or 0.6 mg/kg intranasal once daily for three days, 48 mg/ml Mch): significantly reduced airway resistance
- dosage level sufficient for reduced airway responsiveness ([1]; Example 3): ≤ 0.06 mg/kg
- airway resistance vs PBS control ([1]; Example 4, 0.6 mg/kg once daily for three days, 6, 12, 24 and 48 mg/ml Mch): significantly reduced airway resistance
- airway resistance vs baseline ([1]; Example 4, 0.6 mg/kg, 3 and 6 mg/ml methacholine): did not increase airway resistance above baseline
- airway resistance vs baseline ([1]; Example 4, 0.6 mg/kg, 12, 24 and 48 mg/ml methacholine): increased airway resistance above baseline
- airway resistance in response to Mch challenge vs PBS ([1]; Example 7, 0.6 mg/kg, one day of treatment): no difference in airway resistance
- airway resistance vs PBS ([1]; Example 7, 0.6 mg/kg, three days of treatment, 24 and 48 mg/ml Mch): significantly reduced airway resistance
- airway resistance vs PBS ([1]; Example 7, 0.6 mg/kg, two days of treatment, 3, 6 and 48 mg/ml methacholine): not at 3, 6 and 48 mg/ml
- airway resistance vs PBS ([1]; Example 7, 0.6 mg/kg, two days of treatment, 12 and 24 mg/ml methacholine): appears to reduce airway resistance
- difference in airway resistance between dose groups ([1]; Example 8, 0.0008, 0.004, 0.02, 0.1 mg/kg): No difference was observed between the different dose groups
- airway resistance vs PBS ([1]; Example 8, 0.0008, 0.004, 0.02 or 0.1 mg/kg once daily for three days, 24 and 48 mg/ml Mch): significantly reduced airway resistance
- dosage level sufficient for reduced airway responsiveness ([1]; Example 8): ≤ 0.0008 mg/kg
- average percentage change Penh (increase in airway resistance over baseline) ([1]; Example 9, 10 ng/kg once daily three days, 24 mg/ml Mch, PBS 550-560%): 525-530%
- average percentage change Penh (increase in airway resistance over baseline) ([1]; Example 9, 0.1 μg/kg, 24 mg/ml Mch): 450%
- average percentage change Penh (increase in airway resistance over baseline) ([1]; Example 9, 1 μg/kg, 24 mg/ml Mch): 525%
- average percentage change Penh (increase in airway resistance over baseline) ([1]; Example 9, 10 μg/kg, 24 mg/ml Mch): 225%
- average percentage change Penh (increase in airway resistance over baseline) ([1]; Example 9, 0.1 mg/kg, 24 mg/ml Mch): 200%
- airway resistance vs PBS ([1]; Example 9, all doses 10 ng/kg to 0.1 mg/kg, 24 mg/ml Mch): reduced airway resistance
- airway resistance in response to Mch ([1]; Example 9, dose levels of 0.01 or 0.1 mg/kg): significantly reduced airway resistance
- airway resistance vs PBS ([2]; 0.6 mg/kg once daily for three days): significantly reduced airway resistance
- airway resistance vs baseline ([2]; 0.6 mg/kg): increased airway resistance above baseline
